Changes are numbered by the printed parent chain.
T1: human CEACAM5 on CEACAM5-expressing cancer cell lines (human, UniProt P06731 35-685)
T1 construct: whole, on cells; also called CEACAM5 on SK-CO-1, MKN-45, HPAF-II, SNU-C1, Ls174T, LoVo cells
T1 sequence (looked up): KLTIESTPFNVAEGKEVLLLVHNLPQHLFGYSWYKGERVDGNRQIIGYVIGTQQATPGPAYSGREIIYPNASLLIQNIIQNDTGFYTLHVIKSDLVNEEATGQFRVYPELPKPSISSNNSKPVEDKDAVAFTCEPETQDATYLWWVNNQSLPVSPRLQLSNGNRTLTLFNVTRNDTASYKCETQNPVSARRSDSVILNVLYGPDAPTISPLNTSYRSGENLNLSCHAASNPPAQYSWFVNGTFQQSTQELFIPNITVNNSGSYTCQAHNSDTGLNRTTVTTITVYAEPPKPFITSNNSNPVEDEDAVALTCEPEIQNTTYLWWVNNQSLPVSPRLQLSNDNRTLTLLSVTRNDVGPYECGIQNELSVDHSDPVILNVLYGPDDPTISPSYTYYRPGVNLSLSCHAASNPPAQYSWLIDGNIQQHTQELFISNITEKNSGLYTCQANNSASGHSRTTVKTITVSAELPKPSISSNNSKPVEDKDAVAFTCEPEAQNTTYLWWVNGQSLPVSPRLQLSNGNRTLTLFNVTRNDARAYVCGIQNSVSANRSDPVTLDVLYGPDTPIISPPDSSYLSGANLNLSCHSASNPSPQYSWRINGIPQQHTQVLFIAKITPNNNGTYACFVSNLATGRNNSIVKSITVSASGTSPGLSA

T2: his-tagged recombinant huCEACAM3 (R&D Systems, #9868-CM) (human, UniProt P40198 35-155)
T2 construct: Bought reagent; also called rec. hCEACAM3; recombinant soluble human CEACAM3; not shown: His tag
T2 sequence (looked up): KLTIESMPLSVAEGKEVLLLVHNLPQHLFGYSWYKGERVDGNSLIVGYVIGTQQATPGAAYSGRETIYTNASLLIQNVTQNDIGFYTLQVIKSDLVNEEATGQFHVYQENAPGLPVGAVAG

B1: K2AC84 (bispecific antibody, human IgG1, kappa, lambda)
heavy: not shown
light 1: QSVLTQPPSVSAAPGQKVTISCSGSSSNIGIGLVSWYQQLPGTAPKLLIYNVNTRPSGIPDRFSGSKSGTSATLGITGLQTGDEADYYCGTWDFSYRVDFGGGTKLTVLGQPKAAPSVTLFPPSSEELQANKATLVCLISDFYPGAVTVAWKADSSPVKAGVETTTPSKQSNNKYAASSYLSLTPEQWKSHRSYSCQVTHEGSTVEKTVAPTECS
light 2: not shown
notes: Kappa-lambda body; also called CD47xCEACAM5 bispecific antibody K2AC84; AC84 (CEACAM5 arm)
B2: K2AC100 (bispecific antibody, human IgG1, kappa, lambda)
heavy: not shown
light 1: B1 light 1 with I31Y, V52G, T54I
light 2: not shown
notes: Kappa-lambda body; also called CD47xCEACAM5 bispecific antibody K2AC100; AC100 (CEACAM5 arm)
B3: K2AC22 (bispecific antibody, human IgG1, kappa, lambda)
heavy: not shown
light 1: B1 light 1 with G30A, I31N, L33I, N51F, V52D, T54L, R97G, V98I, D99V
light 2: not shown
notes: Kappa-lambda body, human IgG1, one arm for CEACAM5 and one for CD47; comparison antibody from WO2019234576; also called state of the art bispecific CEAxCD47 antibody K2AC22; CD47xCEACAM5 bispecific antibody K2AC22

Target: T1, human CEACAM5 on CEACAM5-expressing …
Assay: flow cytometry on MKN-45 cells (carry CEACAM5 and CD47), PE anti-human IgG Fc
Description: (§1) The binding of CD47×CEACAM5 bispecific antibodies was tested on CEACAM5-expressing human gastric adenocarcinoma cells (e.g. MKN-45), on CEACAM5-expressing human colorectal cancer cells (SK-CO-1, SNU-C1, Ls174T, and LoVo), and on CEACAM5-expressing pancreatic adenocarcinoma cells (HPAF-II).
(§2) Cells were harvested, counted, checked for viability and resuspended at 3×10⁶ cells/ml in FACS buffer (PBS 2% BSA, 0.1% NaN3). 100 μl of the cell suspension was distributed in V-bottom 96-well plates (3×10⁵ cells/well). The supernatant was removed by centrifugation 3 minutes at 4° C., 1300 rpm. Increasing concentrations of the antibody according to the invention were then added into the wells and incubated for 15 minutes at 4° C. Cells were washed twice with cold FACS buffer and re-incubated for further 15 minutes at 4° C. with the PE (R-phycoerythrin)-conjugated mouse anti-human IgG Fc secondary antibody (SouthernBiotech, pre-diluted 1:100 in FACS buffer). Cells were washed twice with cold FACS buffer and resuspended in 300 μl FACS buffer with 1:15000-diluted SytoxBlue (Life Technologies). Fluorescence, specifically mean fluorescence […] (MFI), was determined using a Cytoflex […] flow cytometer. Binding curves and […] and Emax values were obtained and calculated using GraphPad Prism7 software.

EC50 [nM]	Emax (MFI)	Binder
7.3	1.52e+06	B1
8.7	1.3e+06	B2
21.3	1.16e+06	B3

Target: T1, human CEACAM5 on CEACAM5-expressing …
Assay: flow cytometry on Ls174T cells (carry CEACAM5 and CD47), PE anti-human IgG Fc
Description: as §1, §2

EC50 [nM]	Emax (MFI)	Binder
5.6	89000	B1
4.5	70000	B2
28	73000	B3

Target: T1, human CEACAM5 on CEACAM5-expressing …
Assay: flow cytometry on HPAF-II cells (carry CEACAM5 and CD47), PE anti-human IgG Fc
Description: as §1, §2

EC50 [nM]	Emax (MFI)	Binder
8.7	1.27e+06	B1
8	1.1e+06	B2
19.3	670000	B3

Target: T2, his-tagged recombinant huCEACAM3 (R&D …)
Assay: BLI (Octet), KD on CEACAM3 against KD on CEACAM5
Description: The affinity of the anti-human CEACAM5 arm of the CD47×CEACAM5 bispecific antibodies of the invention for recombinant soluble human CEACAM5 was determined using the Bio-Layer Interferometry (BLI) technology. An OctetRED96 instrument and Protein A biosensors were used (Sartorius). The measurement was performed at 30° C. After hydration, pre-conditioning and a baseline step in Kinetic buffer (PBS, 0.002% Tween 20, 0.01% BSA, Kathon; Sartorius), biosensors were loaded for 5 min with the κλ body at 0.5 μg/mL in Kinetic buffer. Then, biosensors were dipped into a serial dilution of recombinant human CEACAM5 Extra Cellular Domain (ECD) soluble protein (produced in house), starting at 50 nM with a 2× dilution factor. The association and dissociation phases were monitored for 600 seconds each. Biosensors were regenerated using 10 mM glycine pH 1.7. A standard acquisition rate was applied (5.0 Hz, averaging by 20). Curves were processed with a reference well subtraction, a Y alignment on the baseline, without interstep correction. The affinity was measured applying a 1:1 global fitting model on the full association and dissociation steps. The binding affinity (KD) of the bispecific antibodies of the invention to recombinant human CD47 was determined by the same experimental procedure.
The affinity of the anti-human CEACAM5 arms of the CD47×CEACAM5 bispecific antibodies of the invention for recombinant soluble human CEACAM3 was determined using the Bio-Layer Interferometry (BLI) technology and an OctetRED96 instrument. HIS1K biosensors (Sartorius), loaded with an anti-His tag antibody, were used to capture his-tagged recombinant huCEACAM3 (R&D Systems, #9868-CM). The measurement was performed at 30° C. After hydration, pre-conditioning and a baseline step in Kinetic buffer (PBS, 0.002% Tween 20, 0.01% BSA, Kathon; Sartorius), biosensors were loaded for 5 min with the recombinant huCEACAM3 at 5 μg/mL in Kinetic buffer. […] The association and dissociation phases were monitored for 60 seconds and 120 seconds respectively. […]

Fold difference hCEACAM3/hCEACAM5 (ratio of KD) [fold]	Binder
137	B1
146	B2
83	B3
